One assay addresses Ad293 STEAP3-2. In words: flow cytometry cell binding; Ad293 STEAP3-2 chimera cells; affinity calculated from EC50.
The target of a further assay is Ad293 Murine STEAP3-2. In words: flow cytometry cell binding; Ad293 murine STEAP3-2 chimera cells; affinity calculated from EC50.

The values below come from patent publication US20230192803A1 (published 2023).

B1: 40A3 scFv-Fc (Fc fusion)
scFv: EIVMTQSPATLSVSPGERATLSCRASQSVNSNLAWYQQKPGQAPRLLIYGASTRATGIPARFSGSGSGTEFTLTISSLQSEDFAVYYCQQYNNWPFTFGPGTKVDIKGGGGSGGGGSGGGGSGGGGSQVQLQQSGPGLVKPSQTLSLTCAISGDSVSRNSAVWNWIRQSPSRGLEWLGRTYYRSKWYNDYAVSVKSRITINPDTSKNQFSLQVNSVTPEDTAVYYCARGLLQNNFYYYMDVWGKGTTVTVSS
For B1, the EC50 (commonly the midpoint of the concentration-response curve) is 20.2 nM in the assay with Ad293 STEAP3-2 and 28.2 nM in the assay with Ad293 Murine STEAP3-2.
